Experimental data from doi:10.1101/2024.12.20.629683 (bioRxiv, 2024).

Biological target: Ryanodine receptor 1 (RyR1) (rabbit (endogenous in skeletal muscle), UniProt P11716)
Test: cryo-EM structure

Sequence of Ryanodine receptor 1 (RyR1) (P11716 whole entry): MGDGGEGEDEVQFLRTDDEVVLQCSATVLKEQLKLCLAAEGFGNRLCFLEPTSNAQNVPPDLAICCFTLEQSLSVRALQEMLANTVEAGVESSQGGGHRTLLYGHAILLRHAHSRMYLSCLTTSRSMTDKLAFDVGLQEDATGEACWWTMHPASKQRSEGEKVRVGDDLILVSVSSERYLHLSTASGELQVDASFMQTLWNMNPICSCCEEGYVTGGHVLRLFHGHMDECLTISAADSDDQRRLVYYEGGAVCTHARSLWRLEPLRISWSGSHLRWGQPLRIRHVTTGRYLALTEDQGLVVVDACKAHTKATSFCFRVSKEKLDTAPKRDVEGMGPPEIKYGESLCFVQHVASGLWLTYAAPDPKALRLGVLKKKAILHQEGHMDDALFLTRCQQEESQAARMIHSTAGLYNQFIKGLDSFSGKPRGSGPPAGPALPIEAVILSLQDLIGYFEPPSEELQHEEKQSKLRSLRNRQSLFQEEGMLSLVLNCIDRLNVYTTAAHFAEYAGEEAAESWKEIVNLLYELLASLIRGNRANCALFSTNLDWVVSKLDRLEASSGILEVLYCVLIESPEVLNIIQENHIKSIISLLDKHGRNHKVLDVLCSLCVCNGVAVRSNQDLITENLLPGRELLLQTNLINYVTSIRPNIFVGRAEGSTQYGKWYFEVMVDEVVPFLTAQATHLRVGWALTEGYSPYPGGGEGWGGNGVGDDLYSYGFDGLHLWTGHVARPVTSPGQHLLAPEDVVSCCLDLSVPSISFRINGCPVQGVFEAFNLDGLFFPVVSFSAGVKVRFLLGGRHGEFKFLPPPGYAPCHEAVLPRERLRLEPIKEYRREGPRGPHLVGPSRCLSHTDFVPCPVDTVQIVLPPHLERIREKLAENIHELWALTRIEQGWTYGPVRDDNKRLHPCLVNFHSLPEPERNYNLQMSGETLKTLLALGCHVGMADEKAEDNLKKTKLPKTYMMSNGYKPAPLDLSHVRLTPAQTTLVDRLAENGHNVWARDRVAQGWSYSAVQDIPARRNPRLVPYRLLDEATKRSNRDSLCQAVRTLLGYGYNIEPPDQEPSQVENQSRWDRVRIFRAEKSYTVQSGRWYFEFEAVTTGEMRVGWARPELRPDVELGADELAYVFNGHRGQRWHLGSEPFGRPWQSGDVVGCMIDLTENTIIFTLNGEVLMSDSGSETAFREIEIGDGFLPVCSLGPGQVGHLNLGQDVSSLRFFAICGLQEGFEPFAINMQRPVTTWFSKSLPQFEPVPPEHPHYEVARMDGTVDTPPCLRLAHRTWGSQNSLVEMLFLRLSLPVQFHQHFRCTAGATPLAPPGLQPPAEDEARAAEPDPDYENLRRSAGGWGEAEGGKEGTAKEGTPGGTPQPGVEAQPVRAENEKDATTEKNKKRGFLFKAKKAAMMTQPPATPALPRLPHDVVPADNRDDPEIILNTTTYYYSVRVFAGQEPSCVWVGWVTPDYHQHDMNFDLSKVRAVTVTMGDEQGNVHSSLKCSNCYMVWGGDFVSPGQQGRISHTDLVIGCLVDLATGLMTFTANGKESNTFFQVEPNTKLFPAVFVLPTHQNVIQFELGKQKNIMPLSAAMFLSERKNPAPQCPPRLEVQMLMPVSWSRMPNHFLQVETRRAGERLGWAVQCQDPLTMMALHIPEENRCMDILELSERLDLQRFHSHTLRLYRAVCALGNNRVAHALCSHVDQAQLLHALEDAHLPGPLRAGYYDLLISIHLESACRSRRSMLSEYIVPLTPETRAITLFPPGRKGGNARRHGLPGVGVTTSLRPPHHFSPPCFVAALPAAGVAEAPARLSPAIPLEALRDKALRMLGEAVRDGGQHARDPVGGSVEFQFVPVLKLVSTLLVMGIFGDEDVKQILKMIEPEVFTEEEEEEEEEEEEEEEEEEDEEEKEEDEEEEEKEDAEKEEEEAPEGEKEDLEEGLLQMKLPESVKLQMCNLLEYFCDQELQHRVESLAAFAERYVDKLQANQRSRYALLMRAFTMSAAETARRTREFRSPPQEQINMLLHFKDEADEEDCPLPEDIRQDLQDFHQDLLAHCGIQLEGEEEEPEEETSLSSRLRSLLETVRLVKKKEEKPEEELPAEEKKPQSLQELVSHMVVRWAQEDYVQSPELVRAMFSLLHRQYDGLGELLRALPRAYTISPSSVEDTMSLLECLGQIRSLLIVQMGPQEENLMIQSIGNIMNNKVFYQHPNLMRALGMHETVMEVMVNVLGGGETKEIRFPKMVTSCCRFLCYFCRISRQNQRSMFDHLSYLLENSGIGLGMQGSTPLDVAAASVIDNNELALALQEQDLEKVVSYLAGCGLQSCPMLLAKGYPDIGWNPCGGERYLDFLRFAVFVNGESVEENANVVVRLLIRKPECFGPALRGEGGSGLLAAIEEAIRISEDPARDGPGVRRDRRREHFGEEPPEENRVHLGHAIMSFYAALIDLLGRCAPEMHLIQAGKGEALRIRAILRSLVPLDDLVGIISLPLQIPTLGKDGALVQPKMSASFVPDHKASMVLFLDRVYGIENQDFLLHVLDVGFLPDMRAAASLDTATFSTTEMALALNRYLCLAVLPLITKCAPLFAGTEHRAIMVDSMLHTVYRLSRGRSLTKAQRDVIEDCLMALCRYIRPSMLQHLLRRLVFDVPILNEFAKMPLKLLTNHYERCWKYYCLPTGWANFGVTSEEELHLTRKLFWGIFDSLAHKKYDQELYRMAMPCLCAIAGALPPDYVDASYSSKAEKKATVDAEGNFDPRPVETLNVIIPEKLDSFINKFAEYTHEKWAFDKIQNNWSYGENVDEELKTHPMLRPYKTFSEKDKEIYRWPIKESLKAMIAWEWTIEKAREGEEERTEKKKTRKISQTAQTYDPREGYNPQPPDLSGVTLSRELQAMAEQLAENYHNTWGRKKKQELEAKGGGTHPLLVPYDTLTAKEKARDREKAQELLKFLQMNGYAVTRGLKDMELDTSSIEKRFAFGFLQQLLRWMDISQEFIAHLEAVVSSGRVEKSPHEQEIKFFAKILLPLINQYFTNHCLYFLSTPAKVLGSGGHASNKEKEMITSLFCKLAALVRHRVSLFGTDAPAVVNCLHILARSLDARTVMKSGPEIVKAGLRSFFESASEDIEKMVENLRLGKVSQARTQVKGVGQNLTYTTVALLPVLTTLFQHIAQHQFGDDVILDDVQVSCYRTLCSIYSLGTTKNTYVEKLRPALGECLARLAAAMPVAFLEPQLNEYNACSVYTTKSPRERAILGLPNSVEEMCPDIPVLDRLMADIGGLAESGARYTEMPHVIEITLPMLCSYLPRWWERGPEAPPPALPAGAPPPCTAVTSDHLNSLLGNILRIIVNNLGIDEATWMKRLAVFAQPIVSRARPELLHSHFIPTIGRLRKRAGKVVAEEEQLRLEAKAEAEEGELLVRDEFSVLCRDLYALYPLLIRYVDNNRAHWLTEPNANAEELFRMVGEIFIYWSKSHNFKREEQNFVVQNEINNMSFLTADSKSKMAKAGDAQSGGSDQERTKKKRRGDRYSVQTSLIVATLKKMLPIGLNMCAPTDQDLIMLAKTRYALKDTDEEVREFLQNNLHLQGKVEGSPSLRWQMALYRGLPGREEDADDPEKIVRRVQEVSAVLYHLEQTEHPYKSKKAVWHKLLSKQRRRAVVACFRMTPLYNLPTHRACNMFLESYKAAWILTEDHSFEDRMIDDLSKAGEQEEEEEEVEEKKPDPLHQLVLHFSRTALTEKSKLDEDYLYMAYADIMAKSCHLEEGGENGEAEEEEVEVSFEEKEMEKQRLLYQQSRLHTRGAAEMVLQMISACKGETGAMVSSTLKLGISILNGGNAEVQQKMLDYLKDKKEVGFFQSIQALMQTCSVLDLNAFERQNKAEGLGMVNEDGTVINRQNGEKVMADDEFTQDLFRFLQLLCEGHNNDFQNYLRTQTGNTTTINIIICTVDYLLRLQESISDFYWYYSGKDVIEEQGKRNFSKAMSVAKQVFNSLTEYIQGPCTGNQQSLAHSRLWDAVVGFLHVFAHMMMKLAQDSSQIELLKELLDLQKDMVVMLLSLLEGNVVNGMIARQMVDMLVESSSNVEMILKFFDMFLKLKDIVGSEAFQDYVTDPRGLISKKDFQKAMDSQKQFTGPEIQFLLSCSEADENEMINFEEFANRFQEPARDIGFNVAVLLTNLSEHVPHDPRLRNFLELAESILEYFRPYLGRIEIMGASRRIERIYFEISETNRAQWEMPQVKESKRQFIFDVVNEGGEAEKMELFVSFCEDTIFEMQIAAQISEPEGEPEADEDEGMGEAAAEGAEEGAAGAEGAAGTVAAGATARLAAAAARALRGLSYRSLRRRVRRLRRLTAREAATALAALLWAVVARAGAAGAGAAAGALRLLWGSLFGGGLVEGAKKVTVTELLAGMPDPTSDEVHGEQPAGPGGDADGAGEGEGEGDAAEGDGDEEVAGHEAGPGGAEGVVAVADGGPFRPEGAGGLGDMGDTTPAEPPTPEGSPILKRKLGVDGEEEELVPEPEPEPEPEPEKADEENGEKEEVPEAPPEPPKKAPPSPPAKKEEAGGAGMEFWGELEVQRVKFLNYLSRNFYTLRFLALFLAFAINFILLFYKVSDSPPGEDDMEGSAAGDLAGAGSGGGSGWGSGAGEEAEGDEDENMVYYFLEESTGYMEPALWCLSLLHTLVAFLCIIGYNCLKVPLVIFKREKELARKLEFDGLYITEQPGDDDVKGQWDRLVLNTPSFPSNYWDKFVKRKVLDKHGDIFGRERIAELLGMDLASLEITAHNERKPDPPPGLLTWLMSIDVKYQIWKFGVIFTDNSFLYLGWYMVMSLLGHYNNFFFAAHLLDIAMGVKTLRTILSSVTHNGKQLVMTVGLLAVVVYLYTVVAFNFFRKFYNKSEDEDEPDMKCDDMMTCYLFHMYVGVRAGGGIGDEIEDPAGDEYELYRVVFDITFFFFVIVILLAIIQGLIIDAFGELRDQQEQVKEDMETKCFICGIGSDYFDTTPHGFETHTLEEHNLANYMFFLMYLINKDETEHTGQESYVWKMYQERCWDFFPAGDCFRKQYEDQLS

B1: RyR-specific nanobody Nb9657 (VHH)
VHH: QVQLQESGGGLMQAGGSLRLSCTASGSIFSINSMGWYRQAPGKQRELVATITSGNSINYADSVKGRFTISRDNAKNTVYLQMNSLKPEDTAVYYCNADRVPNGYNPWGTPNDEYDYWGQGTQVTVSS
B1: binds.
